In data set [1] the test system is EGFP-cas3-1 (also called EGFP-EF172cas).
Data set [2] has as its system EGFP-Thr1e (EGFP-E-III-F-FNPRGF).
For data set [3], the system named is EGFP-Thr1 (EGFP-E-III-F-N188R).
Data set [4] has as its system EGFP-Thr1f (EGFP-E-III-F-FNPRSF).
In data set [5] the test system is EGFP-T/C1 (EGFP-E-III-F-172).

The record followed here is patent US20150010920.

For active caspase-3, the “cleavage; 50 mM HEPES buffer with 10% sucrose” value in data set [1] is “the cleavage effect was very weak and the cleavage reaction slow”.
Take thrombin: in data set [2], the Km (µM); 50 mM Tris, 150 mM NaCl, 2.5 mM CaCl2, pH 8.0 was 2.81 µM; the “fold change in Km compared to the thrombin sensor with cleavage linker (Gly-Arg-Gly)” value is “Km has great decrease with 10 folds”; the “fold change in kcat compared to the thrombin sensor with cleavage linker (Gly-Arg-Gly)” value is recorded as “kcat, has significant increase with 5 folds”; the “fold change in kcat/Km compared to the thrombin sensor with cleavage linker (Gly-Arg-Gly)” value is on record as “substrate specificity (kcat/Km) of these four thrombin sensor variants is resulted in 50-fold increase”. In addition, in data set [2], the kcat (s^-1); 50 mM Tris, 150 mM NaCl, 2.5 mM CaCl2, pH 8.0 amounted to 0.29 s⁻¹ and the kcat/Km (M^-1 s^-1); 50 mM Tris, 150 mM NaCl, 2.5 mM CaCl2, pH 8.0 worked out at 105000 M⁻¹ s⁻¹. Also, in data set [3], the Km (µM); 50 mM Tris, 150 mM NaCl, 2.5 mM CaCl2, pH 8.0 was 20.9 µM; the kcat (s^-1); 50 mM Tris, 150 mM NaCl, 2.5 mM CaCl2, pH 8.0 is 0.057 s⁻¹; the kcat/Km (M^-1 s^-1); 50 mM Tris, 150 mM NaCl, 2.5 mM CaCl2, pH 8.0 was found to be 2770 M⁻¹ s⁻¹. Besides, in data set [4], the Km (µM); 50 mM Tris, 150 mM NaCl, 2.5 mM CaCl2, pH 8.0 stood at 2.86 µM; the “fold change in Km compared to the thrombin sensor with cleavage linker (Gly-Arg-Gly)” value is “Km has great decrease with 10 folds”; the “fold change in kcat compared to the thrombin sensor with cleavage linker (Gly-Arg-Gly)” value is “kcat, has significant increase with 5 folds”; the “fold change in kcat/Km compared to the thrombin sensor with cleavage linker (Gly-Arg-Gly)” value is “substrate specificity (kcat/Km) of these four thrombin sensor variants is resulted in 50-fold increase”. Besides, in data set [4], the kcat (s^-1); 50 mM Tris, 150 mM NaCl, 2.5 mM CaCl2, pH 8.0 turned out to be 0.23 s⁻¹ and the kcat/Km (M^-1 s^-1); 50 mM Tris, 150 mM NaCl, 2.5 mM CaCl2, pH 8.0 turned out to be 80200 M⁻¹ s⁻¹. In data set [5], the “optical change / cleavage (absorbance at 397 nm, SDS-PAGE, MALDI-MS)” value was “this sensor was not cleaved by thrombin and protease type X”.
